B1: GST-tagged C-terminal tail of human C5aR1 (domain or fragment)
chain: INCCINPIIYVVAGQGFQGRLRKSLPSLLRNVLTEESVVRESKSFTRSTVDTMAQKTQAV
notes: In pGEX4T3, cloned with BamH1 and Xho1; also called GST-C5aR1
B2: GST-tagged C-terminal tail of MCH1 (melanin-concentrating hormone receptor 1) (domain or fragment)
chain: ANSCLNPFVYIVLCETFRKRLVLSVKPAAQGQLRAVSNAQTADEERTESKGT
notes: In pGEX4T3; Positive control; also called GST-MCH1
B3: GST-tagged C-terminal tail of human CXCR4 (domain or fragment)
chain: FHCCLNPILYAFLGAKFKTSAQHALTSVSRGSSLKILSKGKRGGHSSVSTESESSSFHSS
notes: In pGEX6P1, cloned with BamH1 and Xho1; also called GST-CXCR4

Molecular target: T1, Recombinant His-Norbin (His-tagged rat Norbin protein) (rat, UniProt O35095 1-729)
T1 construct: Norbin (Neurochondrin), rat, full-length construct; 98% identical to human Norbin; also called Neurochondrin; NCDN; source: M15 [pREP4] bacteria, inclusion bodies solubilized in 6 M guanidine hydrochloride, renatured by dialysis, purified; not shown: 6xHis, C-terminal, kept
T1 sequence (looked up): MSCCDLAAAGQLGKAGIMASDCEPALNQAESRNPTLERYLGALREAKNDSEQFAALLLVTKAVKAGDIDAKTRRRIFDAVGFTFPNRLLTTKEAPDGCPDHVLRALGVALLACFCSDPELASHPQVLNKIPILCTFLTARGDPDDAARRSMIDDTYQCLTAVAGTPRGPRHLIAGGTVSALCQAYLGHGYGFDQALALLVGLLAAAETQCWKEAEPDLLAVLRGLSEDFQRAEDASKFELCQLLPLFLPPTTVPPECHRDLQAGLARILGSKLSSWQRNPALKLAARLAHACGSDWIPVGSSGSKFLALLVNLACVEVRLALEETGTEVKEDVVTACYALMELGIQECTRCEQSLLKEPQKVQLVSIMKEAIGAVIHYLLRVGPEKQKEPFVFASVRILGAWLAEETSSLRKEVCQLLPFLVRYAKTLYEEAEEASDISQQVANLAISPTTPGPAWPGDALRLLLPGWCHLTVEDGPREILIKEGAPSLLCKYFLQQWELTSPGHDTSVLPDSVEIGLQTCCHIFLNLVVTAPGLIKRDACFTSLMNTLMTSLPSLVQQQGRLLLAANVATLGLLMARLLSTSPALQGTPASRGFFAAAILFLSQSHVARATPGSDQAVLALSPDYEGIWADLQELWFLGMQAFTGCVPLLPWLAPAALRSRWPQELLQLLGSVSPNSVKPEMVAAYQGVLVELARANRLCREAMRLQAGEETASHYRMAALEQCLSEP
Experiment: pull-down; GST-tagged GPCR C-terminal tails (or GST) from bacterial lysates bound to glutathione Sepharose, washed twice in PBS, 2% Triton X-100, 5 mM DTT, incubated with 50 μg purified recombinant His-Norbin for 3 h at 4 °C, washed 3 x in PBS, 1% Triton X-100; western blot with His antibody
Settings: both partners purified

Binder	binding result
B1	binds
B2	binds
B3	binds
